Test results from PMC4725753.

Target: the microbial proteins (competition ELISA with heparin, data not shown)
Test: ELISA; data not shown; immobilised microbial proteins incubated with vitronectin (5 μg/ml) that was pre-incubated with heparin (10 μM)

In the case of “vitronectin purified from human plasma (natural protein)”, the percent inhibition by heparin (10 μM) is reported as 68 to 89%.
